Results reported in publication PMC6910952 (Nature Communications, 2019).
Changes are numbered by the printed parent chain. Values joined by “and” are separate entries in the source; they are usually repeats but may differ in a detail not shown here. Identical values can stand only once. No end group written: not given here.

Assays:
Assay in all cases: fluorescence polarisation; fluorescence anisotropy; 1 nM FlAsH-labeled His6-SUMO-yUfd1 peptide, His6-yNpl4^113–580 in two-fold dilution series; 25 °C; 50 mM Tris-HCl pH 8.0, 100 mM NaCl, 5 mM β-mercaptoethanol, 0.1 g/L BSA
Conditions in all cases: both partners purified
[1] = molecular target: T1, His6-yNpl4^113–580 (Saccharomyces cerevisiae, UniProt P33755 113-580)
T1 construct: codon-optimized synthetic cDNA; also called WT; WT #1; source: E. coli Rosetta (DE3), purified (Ni-NTA, Resource Q); also in lysate, mixed with cells expressing GST-yUfd1 for co-purification; not shown: His6, N-terminal, kept
T1 sequence (looked up): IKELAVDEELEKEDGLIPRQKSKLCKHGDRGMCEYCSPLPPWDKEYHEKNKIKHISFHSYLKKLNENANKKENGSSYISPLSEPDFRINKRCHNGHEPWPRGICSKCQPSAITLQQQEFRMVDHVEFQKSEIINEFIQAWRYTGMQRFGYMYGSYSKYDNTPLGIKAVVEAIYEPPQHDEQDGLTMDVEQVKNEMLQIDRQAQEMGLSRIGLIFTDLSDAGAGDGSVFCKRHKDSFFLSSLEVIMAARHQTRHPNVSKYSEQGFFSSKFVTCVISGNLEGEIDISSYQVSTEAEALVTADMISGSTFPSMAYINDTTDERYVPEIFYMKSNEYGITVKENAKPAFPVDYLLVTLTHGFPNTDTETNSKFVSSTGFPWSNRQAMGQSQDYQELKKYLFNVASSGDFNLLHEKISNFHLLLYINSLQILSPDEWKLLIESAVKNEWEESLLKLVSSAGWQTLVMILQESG

[2] = molecular target: T2, His6-yNpl4^113–580 F326A (Saccharomyces cerevisiae, UniProt P33755 113-580, F326A)
T2 construct: also called yNpl4 F326A; source: E. coli Rosetta (DE3), purified (Ni-NTA, Resource Q); not shown: His6, N-terminal, kept
T2 sequence (looked up): T1 sequence (looked up) with F214A

[3] = molecular target: T3, His6-yNpl4^113–580 M357A (Saccharomyces cerevisiae, UniProt P33755 113-580, M357A)
T3 construct: also called yNpl4 M357A; source: E. coli Rosetta (DE3), purified (Ni-NTA, Resource Q); not shown: His6, N-terminal, kept
T3 sequence (looked up): T1 sequence (looked up) with M245A

[4] = molecular target: T4, His6-yNpl4^113–580 F419A (Saccharomyces cerevisiae, UniProt P33755 113-580, F419A)
T4 construct: also called yNpl4 F419A; source: E. coli Rosetta (DE3), purified (Ni-NTA, Resource Q); not shown: His6, N-terminal, kept
T4 sequence (looked up): T1 sequence (looked up) with F307A

Kd [1]: 85.7 nM and 99.4 nM
Kd [2]: 257 nM
Kd [3]: 164 nM
Kd [4]: 158 nM
B1: FlAsH-labeled His6-SUMO-yUfd1^288–305-GWCCPGCC (peptide, UniProt P53044 288-305, looked up)
chain: {His6-SUMO}-EPAKLDLPEGQLFFGFPMGWCCPGCC
modifications: cysteine pairing not given here; also: FlAsH label bound to CCPGCC motif
notes: the assay methods print 280-305; also called yUfd1-FlAsH; yUfd1 WT; source: E. coli Rosetta (DE3) (pCold-SUMO), purified (Ni-NTA, Resource Q), labeled with FlAsH-EDT2; not shown: His6, N-terminal, kept; SUMO, N-terminal, kept
